One assay concerns CHO-TPO12b cells. Kind of assay: Radiolabeled D-glucosamine incorporation into proteins, control experiment. The assay is classed as cell-based, Chinese hamster. The note with it: tunicamycin treatment under similar conditions (0.5 μg/ml, 20 hours); mean±S.D.; n=3. As for the experimental part: Human TPO contains 5 potential glycosylation sites. It was therefore examined whether carbohydrate moieties are important in the conformation of the epitope(s) in the human TPO antigen(s) recognized by Hashimoto's sera. Western blot analyses were performed on proteins extracted from CHO-TPO12b cells pre-cultured for 20 hours in 0.5 μg/ml tunicamycin, an inhibitor of protein glycosylation. This length of time was chosen because it was the longest tolerated without evidence of significant toxicity (i.e., cell loss). […] In a control experiment, tunicamycin treatment under similar conditions decreased radiolabeled D-glucosamine incorporation into proteins by 56.3±4.8% (mean±S.D.; n=3).

In assay [1] the target is secreted truncated recombinant human thyroid peroxidase (hTPO-M1) (human) (UniProt P07202). The assay can be described thus: competition with serum TPO autoantibodies (11 sera); SP1.2 10^-10 to 10^-7 M; Protein A precipitation.
For assay [2] the target is unchanged. The assay can be described thus: Scatchard analysis; 125I-TPO with unlabeled TPO, anti-kappa/Sac-cel precipitation.
For assay [3] the target is unchanged. The assay can be described thus: competition ELISA on secreted TPO; competitor: serum IgG2 TPO autoantibody, third patient. Set-up: concentration or dose not given beside the values.
For assay [4] the target is unchanged. Kind of assay: competition ELISA on secreted TPO; competitor: serum lambda TPO autoantibodies (4 sera). Background: ELISA stands for enzyme-linked immunosorbent assay.
The target is the same in assay [5]. The assay can be described thus: Scatchard analysis, 125I-TPO.
Assay [6] shares this target. The assay can be described thus: Scatchard analysis; unlabeled TPO competing with 125I-TPO for the Fab.
Assay [7] shares this target. The assay can be described thus: competition ELISA on secreted TPO; competitor: serum IgG4 TPO autoantibody, first patient. Also on record: concentration or dose not given beside the values.
Assay [8] has the same target. The assay can be described thus: competition ELISA on secreted TPO; competitor: serum IgG1 TPO autoantibody, second patient. Also on record: concentration or dose not given beside the values.
Assay [9] has the same target. Kind of assay: competition with serum TPO autoantibodies (5 sera); Protein A precipitation.
The target is the same in assay [10]. Kind of assay: competition ELISA on secreted TPO; competitor: serum IgG4 TPO autoantibody, second patient. Also on record: concentration or dose not given beside the values.
Assay [11] has the same target. The assay can be described thus: competition ELISA on secreted TPO; competitor: serum IgG1 TPO autoantibody, first patient. Also on record: concentration or dose not given beside the values.
Assay [12] shares this target. Kind of assay: confluent plaque lysis assay; competition of unlabeled TPO with 125I-TPO, densitometry.
The target of assay [13] is T1, recombinant human thyroid peroxidase (hTPO), full-length wild-type, expressed in CHO cells (human, UniProt P07202 19-933).
T1 construct: Used on intact CHO cells (FACS), as CHO microsomes (ELISA) and as non-denatured detergent extracts (non-reducing Western blot, immunoprecipitation); also called human TPO; thyroid microsomal antigen
T1 sequence: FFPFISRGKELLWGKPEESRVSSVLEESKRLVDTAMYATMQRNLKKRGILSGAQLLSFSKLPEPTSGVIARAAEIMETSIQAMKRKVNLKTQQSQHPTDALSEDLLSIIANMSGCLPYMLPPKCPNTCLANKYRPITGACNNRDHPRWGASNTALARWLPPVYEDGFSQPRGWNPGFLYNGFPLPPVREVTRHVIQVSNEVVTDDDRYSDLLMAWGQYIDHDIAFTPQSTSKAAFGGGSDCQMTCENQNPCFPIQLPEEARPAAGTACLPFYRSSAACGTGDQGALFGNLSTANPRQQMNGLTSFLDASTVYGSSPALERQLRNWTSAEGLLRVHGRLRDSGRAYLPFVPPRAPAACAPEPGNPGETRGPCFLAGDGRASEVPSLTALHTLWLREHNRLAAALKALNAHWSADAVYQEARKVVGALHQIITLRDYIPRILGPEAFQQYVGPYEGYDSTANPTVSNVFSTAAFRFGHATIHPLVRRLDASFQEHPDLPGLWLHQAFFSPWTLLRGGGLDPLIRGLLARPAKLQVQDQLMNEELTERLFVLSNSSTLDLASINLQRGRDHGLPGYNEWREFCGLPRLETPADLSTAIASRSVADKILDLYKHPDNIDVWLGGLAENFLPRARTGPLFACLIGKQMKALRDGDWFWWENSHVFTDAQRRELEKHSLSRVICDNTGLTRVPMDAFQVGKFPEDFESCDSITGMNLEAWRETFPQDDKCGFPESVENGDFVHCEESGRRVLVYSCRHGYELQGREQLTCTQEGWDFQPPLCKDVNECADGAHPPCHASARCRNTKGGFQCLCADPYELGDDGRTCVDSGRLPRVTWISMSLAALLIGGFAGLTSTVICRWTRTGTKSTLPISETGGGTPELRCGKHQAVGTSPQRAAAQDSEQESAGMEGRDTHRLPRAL
The assay can be described thus: lectin affinity chromatography of 35S-labeled CHO-TPO extract, then immunoprecipitation.
Procedure: After incubation overnight at 4° C., 150 µl of IgG-Sorb were added, and the tubes rotated end over end for 2–4 hours at room temperature. The IgG-Sorb was recovered by centrifugation for 5 minutes at 10,000× g, washed 5 times with 1 ml of immunoprecipitation buffer, and then once with 10 mM Tris, pH 7.5, 2 mM EDTA and 0.5% Na dodecylsufate. Finally, the pellet was resuspended in Laemmli sample buffer (31), with 50 mM dithiothreitol (DTT), boiled for 3 minutes, and applied to 6% polyacrylamide gels. […] Autoradiography was performed with Kodak XAR-5 film.
After application to the columns, the unbound proteins were removed by washing with 50 ml of the foregoing Buffer A's. […] Fractions of 0.5 ml were collected and counted for radioactivity in a liquid scintillation counter.

For another assay, the system named is Thyroid Peroxidase (TPO). The assay can be described thus: Assay of human TPO enzymatic activity (guaiacol and iodide peroxidase). Type of assay: biochemical. The note with it: conditioned medium of transfected CHO cells, collected after 3 days of culture. As for the experimental part: […] P., et al., Endocrinol. 116:1493-1500 (1985)). In later experiments, a more rapid method was used. Cells were suspended with a rubber scraper in 1.5 ml calcium-magnesium free Dulbecco's phosphate-buffered saline and protein determined on a 5 ul aliquot. […] […] One guaiacol unit is defined as a _A470 of 1.0 per minute which is equivalent to 150 nmols guaiacol oxidized per minute (Chance, B., et al., In Methods in Enzymology (Colonic. S. P., et al.), Academic Press, New York 2:164-[…] (1955)). One unit of iodide peroxidase is defined as a _A353 of 1.0 per minute which corresponds to 43 nmols I3-formed per minute (Magnusson, R. P., et al., J. Biol. Chem. 259:13783-13790 (1984)).

“And” between values parts separate entries of the source, which are not always exact repeats. Equal entries are not always repeated.

In the case of tunicamycin, in the assay on CHO-TPO12b cells, the “Decrease of radiolabeled D-glucosamine incorporation into proteins” value is given as 56.3±4.8%.
In the case of human TPO-specific Fab fragment SP1.2, the maximum % inhibition of serum autoantibody binding to 125I-TPO in assay [1] is 36 to 72%. Also, the Kd (usually the concentration at which binding is half-saturated) in assay [2] was 0.08 nM; in [5], 0.06 nM and 0.08 nM; in assay [6], 0.083 nM; in [12], 1 nM. In addition, the % inhibition (in general, the percentage by which the read-out fell short of the control) is 29% in [3]; 12 to 18% in [4]; 77% in assay [7]; 62% in [8]; 13% in [10]; 14% in [11]. Also, the mean % inhibition of serum autoantibody binding to 125I-TPO in assay [9] amounted to 55%.

B1: peanut agglutinin (agarose-bound lectin) (other, UniProt P02872 24-259, looked up)
chain: AETVSFNFNSFSEGNPAINFQGDVTVLSNGNIQLTNLNKVNSVGRVLYAMPVRIWSSATGNVASFLTSFSFEMKDIKDYDPADGIIFFIAPEDTQIPAGSIGGGTLGVSDTKGAGHFVGVEFDTYSNSEYNDPPTDHVGIDVNSVDSVKTVPWNSVSGAVVKVTVIYDSSTKTLSVAVTNDNGDITTIAQVVDLKAKLPERVKFGFSASGSLGGRQIHLIRSWSFTSTLITTTRRS
notes: also called PNA
Turning to B1, the binding result in assay [13] is “no binding”.

B2: Ulex europaeus lectin (agarose-bound) (other)
chain: SDDLSFKFKNFSQNGKDLSFQGDASVIETGVLQLNKVGNNLPDETGGIARYIAPIHIWNCNTGEVASFITSFSFFMETSANPKAATDGLTFFLAPPDSPLRRAGGYFGLFEDTKDNDSSYQTVAVEFDTIGSPVNFDDPGFPHIGIDVNRVKSINAERWNKRYGLNNVANVEIIYEASSKTLTASLTYPSDQTSISVTSIVDLKEILPEWVSVGFSGGTYIGRQATHEVLNWYFTSNLINTNS
modifications: Lectin immobilised on agarose beads. The native lectin is a glycosylated homodimer; one subunit is given.
notes: also called UEA-F
With B2, the binding result in assay [13] is listed as “no binding”.

B3: wild-type hTPO: full-length membrane-associated recombinant human TPO expressed in CHO cells (protein, UniProt P07202 1-933, looked up)
chain: MRALAVLSVTLVMACTEAFFPFISRGKELLWGKPEESRVSSVLEESKRLVDTAMYATMQRNLKKRGILSPAQLLSFSKLPEPTSGVIARAAEIMETSIQAMKRKVNLKTQQSQHPTDALSEDLLSIIANMSGCLPYMLPPKCPNTCLANKYRPITGACNNRDHPRWGASNTALARWLPPVYEDGFSQPRGWNPGFLYNGFPLPPVREVTRHVIQVSNEVVTDDDRYSDLLMAWGQYIDHDIAFTPQSTSKAAFGGGADCQMTCENQNPCFPIQLPEEARPAAGTACLPFYRSSAACGTGDQGALFGNLSTANPRQQMNGLTSFLDASTVYGSSPALERQLRNWTSAEGLLRVHARLRDSGRAYLPFVPPRAPAACAPEPGIPGETRGPCFLAGDGRASEVPSLTALHTLWLREHNRLAAALKALNAHWSADAVYQEARKVVGALHQIITLRDYIPRILGPEAFQQYVGPYEGYDSTANPTVSNVFSTAAFRFGHATIHPLVRRLDASFQEHPDLPGLWLHQAFFSPWTLLRGGGLDPLIRGLLARPAKLQVQDQLMNEELTERLFVLSNSSTLDLASINLQRGRDHGLPGYNEWREFCGLPRLETPADLSTAIASRSVADKILDLYKHPDNIDVWLGGLAENFLPRARTGPLFACLIGKQMKALRDGDWFWWENSHVFTDAQRRELEKHSLSRVICDNTGLTRVPMDAFQVGKFPEDFESCDSITGMNLEAWRETFPQDDKCGFPESVENGDFVHCEESGRRVLVYSCRHGYELQGREQLTCTQEGWDFQPPLCKDVNECADGAHPPCHASARCRNTKGGFQCLCADPYELGDDGRTCVDSGRLPRVTWISMSLAALLIGGFAGLTSTVICRWTRTGTKSTLPISETGGGTPELRCGKHQAVGTSPQRAAAQDSEQESAGMEGRDTHRLPRAL
modifications: full-length
notes: full-length membrane-associated recombinant human TPO expressed in CHO cells
Consider B3, for which the “TPO activity in culture medium” value in the assay on Thyroid Peroxidase (TPO) was “no detectable enzymatic activity”.

B4: mutated form of hTPO: truncated, secreted recombinant human TPO (848 amino acids) from CHO-TPO-M1-K1 cells (protein)
chain: FFPFISRGKELLWGKPEESRVSSVLEESKRLVDTAMYATMQRNLKKRGILSGAQLLSFSKLPEPTSGVIARAAEIMETSIQAMKRKVNLKTQQSQHPTDALSEDLLSIIANMSGCLPYMLPPKCPNTCLANKYRPITGACNNRDHPRWGASNTALARWLPPVYEDGFSQPRGWNPGFLYNGFPLPPVREVTRHVIQVSNEVVTDDDRYSDLLMAWGQYIDHDIAFTPQSTSKAAFGGGSDCQMTCENQNPCFPIQLPEEARPAAGTACLPFYRSSAACGTGDQGALFGNLSTANPRQQMNGLTSFLDASTVYGSSPALERQLRNWTSAEGLLRVHGRLRDSGRAYLPFVPPRAPAACAPEPGNPGETRGPCFLAGDGRASEVPSLTALHTLWLREHNRLAAALKALNAHWSADAVYQEARKVVGALHQIITLRDYIPRILGPEAFQQYVGPYEGYDSTANPTVSNVFSTAAFRFGHATIHPLVRRLDASFQEHPDLPGLWLHQAFFSPWTLLRGGGLDPLIRGLLARPAKLQVQDQLMNEELTERLFVLSNSSTLDLASINLQRGRDHGLPGYNEWREFCGLPRLETPADLSTAIASRSVADKILDLYKHPDNIDVWLGGLAENFLPRARTGPLFACLIGKQMKALRDGDWFWWENSHVFTDAQRRELEKHSLSRVICDNTGLTRVPMDAFQVGKFPEDFESCDSITGMNLEAWRETFPQDDKCGFPESVENGDFVHCEESGRRVLVYSCRHGYELQGREQLTCTQEGWDFQPPLCKDVNECADGAHPPCHASARCRNTKGGFQCLCADPYELGDDGRTCVDSGRLPRVT
B4: in the assay with Thyroid Peroxidase (TPO), the “TPO activity in culture medium” value was found to be 1.0 guaiacol U/10 ml medium.

Values taken from patent US7196181B1, “Sequences encoding novel human thyroid peroxidase proteins and polypeptides” (Quest Diagnostics Investments, Inc., priority 1989, dated 2007).
